Legend:
[1] = molecular target: T1, recombinant mouse Trop-2-his protein (Cat.: 50922-M08H, Beijing Yiqiao Shenzhou Science and Technology Co., … (mouse, UniProt Q8BGV3 25-270)); assay: ELISA, coated mouse Trop-2-his, purified murine antibody
T1 construct: Bought protein; not shown: his tag
T1 sequence (looked up): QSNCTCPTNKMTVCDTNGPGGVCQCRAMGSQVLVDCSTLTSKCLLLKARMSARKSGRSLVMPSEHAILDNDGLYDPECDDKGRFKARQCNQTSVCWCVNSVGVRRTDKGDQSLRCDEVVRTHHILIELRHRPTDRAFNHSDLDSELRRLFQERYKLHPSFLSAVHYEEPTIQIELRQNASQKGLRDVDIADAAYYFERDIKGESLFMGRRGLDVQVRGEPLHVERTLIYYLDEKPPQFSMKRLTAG
Protocol: (§1) Washed with PBS 3 times, the plates were blocked with the added 5% BSA PBS at 37° C. for 60 min, and then washed 3 times with PBST. The 15 purified murine antibodies were diluted to 1 μg/ml with PBS. Controls as follows were set: (1) Positive Control (PC): Sacituzumab (WHO Drug Information (Vol. 31, No. 1, 2017), SEQ ID NO: 39 and SEQ ID NO: 40), a version having murine IgG constant region, […]; (2) Negative Control (NC): an antibody from an irrelevant hybridoma, 1 μg/ml; (3) blank control: PBS. After incubation at 37° C. for 60 min, the plates were washed 4 times with PBST. […] Afterwards, the plates were washed with PBST 4 times, and TMB substrate was added for color development at 37° C. for 10 min. Then 2M HCl was added to stop reaction; and absorbances at 450 nm and at 630 nm (as reference wavelength) were read, and A450 nm-630 nm values of the wells in the plates were recorded.

[2] = molecular target: T2, recombinant cynomolgus Trop-2-his protein (ACCESSION NO.: UniProtKB-A0A2K5UE71, AA 1-272) (cynomolgus, UniProt A0A2K5UE71 1-272); assay: ELISA, coated cynomolgus Trop-2-his 1 µg/ml
T2 construct: The printed range begins at residue 1; not shown: his tag
T2 sequence: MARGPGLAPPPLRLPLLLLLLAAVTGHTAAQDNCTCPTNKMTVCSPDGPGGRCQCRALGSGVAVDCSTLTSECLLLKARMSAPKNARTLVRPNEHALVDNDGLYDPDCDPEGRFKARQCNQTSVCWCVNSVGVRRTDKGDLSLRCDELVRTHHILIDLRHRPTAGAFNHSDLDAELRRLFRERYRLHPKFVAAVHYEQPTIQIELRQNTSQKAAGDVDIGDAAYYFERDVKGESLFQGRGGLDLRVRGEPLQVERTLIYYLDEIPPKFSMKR
Protocol: (§2) Washed with PBS 3 times, the plates were blocked with the added 5% BSA PBS at 37° C. for 60 min, and then washed 3 times with PBST. Different concentrations of h23-12 (serial dilutions of 14 concentrations obtained through 3-fold serially diluting a solution with an initial concentration of 10 μg/ml), h4-3 (serial dilutions of 12 concentrations obtained through 3-fold serially diluting a solution with an initial concentration of 3 μg/ml), and Sacituzumab (serial dilutions of 12 concentrations obtained through 3-fold serially diluting a solution with an initial concentration of 3 μg/ml) were added into the plates, with each concentration provided in a parallel well. The plates were incubated at 37° C. for 60 min, and then were washed 4 times with PBST. 1:5000 dilution of H1RP-anti-human Fc (Cat.: 109-035-098, Jackson ImmunoResearch) was added into the plates for incubation at 37° C. for 30 min. Afterwards, the plates were washed with PBST 4 times, and TMB substrate was added for color development at 37° C. for 10 min. Then 2M HCl was added to stop reaction; and absorbances at 450 nm and at 630 nm (as reference wavelength) were read, and A450 nm-630 nm values of the wells in the plates were recorded.

[3] = molecular target: T1, recombinant mouse Trop-2-his protein …; assay: ELISA, coated mouse Trop-2-his 1 µg/ml
Protocol: as §2

[4] = molecular target: T3, recombinant human Trop-2-his protein (ACCESSION NO.: NP_002344.2, AA 1-274) (human, UniProt P09758 27-274); assay: BLI, antibody on AHC sensor, Trop-2-his 60 nM
T3 construct: range 27-274; also called recombinant human Trop-2 protein; recombinant human Trop-2 extracellular domain; not shown: his tag
T3 sequence (looked up): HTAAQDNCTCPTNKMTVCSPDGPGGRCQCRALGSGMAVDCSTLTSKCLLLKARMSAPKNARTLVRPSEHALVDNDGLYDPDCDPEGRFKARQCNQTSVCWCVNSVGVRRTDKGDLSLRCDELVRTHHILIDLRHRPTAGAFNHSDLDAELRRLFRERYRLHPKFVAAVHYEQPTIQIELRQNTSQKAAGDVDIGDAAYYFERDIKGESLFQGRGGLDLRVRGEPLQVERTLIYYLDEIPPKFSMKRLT
Protocol: 5-6 days after cell transfection, culture supernatants were purified through ProA affinity chromatography column to obtain different humanized antibodies. Affinities of the obtained antibodies were determined by an assay including capturing Fc fragments of the antibodies with anti-human IgG Fc capture (AHC) biosensors using Octet QKe system instrument from Fortebio. For the assay, each of the humanized antibodies and control antibody Sacituzumab was diluted to 4 μg/ml in PBS, and was allowed to flow through the surface of an AHC biosensor (Cat.: 18-0015, PALL) for 120 s. Recombinant human Trop-2-his protein (ACCESSION NO.: NP_002344.2, AA 1-274) was used as a mobile phase, and its concentration was 60 nM. The binding time was 100 s and the dissociation time was 300 s. When the assay was finished, data from which the response values of blank control had been deducted were fitted to a 1:1 Langmuir binding model using software, and then kinetic constants for antigen-antibody binding were calculated.
Affinities of the antibodies obtained from the combinations of mutants of murine antibody 23-12, chimeric antibody ch4-3 and control antibody Sacituzumab to recombinant human Trop-2-his protein were determined by ForteBio (Table 8).

[5] = molecular target: T3, recombinant human Trop-2-his protein …; assay: ELISA, coated human Trop-2-his 1 µg/ml
Protocol: as §2

[6] = molecular target: T3, recombinant human Trop-2-his protein …; assay: BLI, antibody on AHC sensor, Trop-2-his 23, 30, 45, 60 nM
Protocol: Affinities of the antibodies were determined by an assay including capturing Fc fragments of the antibodies with anti-human IgG Fc capture (AHC) biosensors using Octet QKe system instrument from Fortebio.
For the assay, each of the antibodies (h23-12, h4-3, and control antibody Sacituzumab) was diluted to 4 μg/ml in PBS, and was allowed to flow through the surface of an AHC biosensor (Cat.: 18-0015, PALL) for 120 s. Recombinant human Trop-2-his protein (ACCESSION NO.: NP_002344.2, AA 1-274) was used as a mobile phase. The Trop-2-his protein was used in following concentrations which corresponded to different antibodies: in case of h23-12, the Trop-2 was used in concentrations of 23, 30, 45, and 75 nM; in case of h4-3, it was used in concentrations of 23, 30, 45, and 60 nM; and in case of Sacituzumab, it was used in concentrations of 23, 30, 45, and 75 nM. The binding time was 100 s and the dissociation time was 300 s. When the assay was finished, data from which the response values of blank control had been deducted were fitted to a 1:1 Langmuir binding model using software, and then kinetic constants for antigen-antibody binding were calculated.

[7] = molecular target: T1, recombinant mouse Trop-2-his protein …; assay: ELISA, plate coated with recombinant mouse Trop-2-his, HRP-goat anti-mouse IgG (Fc gamma), OD450/630
Protocol: as §1

[8] = molecular target: T1, recombinant mouse Trop-2-his protein …; assay: ELISA, coated mouse Trop-2-his, purified murine antibody 1 µg/ml
Protocol: as §1

B1: m4-3 (antibody, mouse IgG1, V domains shown)
VH: QVQLQQSGPELVKPGASVKMSCKASGFTFTDYVIGWVKQRTGQGLEWIGEIYLGSGTIYYTEKFKGKATLTADTSSNTAYMQLSSLTSEDSAVYFCARGSIFPFDYWGQGTTLTVSS
VL: QIVLTQSPAIMSASPGEKVTMTCSASSSVSYMYWYQQKPGSSPRLLIYDTSTLASGVPVRFSGSGSGTSYSLTISRMEAEDAATYYCQQWSSYPYTFGGGTKLEIK
notes: also called murine antibody 4-3
B1: no binding (tested: 1 µg/ml) [1].

B2: m11-4 (antibody, mouse IgG1, V domains shown)
VH: QVQLQQPGAELVRPGASVNLSCKASGYTFTSYWINWVKQRPGQGLEWIGNIYPSNSYTNYNQKFKDTATLTVDKSSSTAYMQLSSPTSEDSAVYFCSSYRSDGFAYWGQGTLVTVSA
VL: DILLTQSPAILSVSPGEKVSFSCRASQNIGTSIHWYQQRTNGSPRLLIEFASESISGIPSRFSGSGSGTDFTLTINSVESEDIADYYCQQSNSWPFTFGGGTKLEIK
notes: also called murine antibody 11-4; ml 1-4
B2: no binding (tested: 1 µg/ml) [1].

B3: m23-12 (antibody, mouse IgG1, V domains shown)
VH: QVQLQQPGAELVKPGASVKLSCKADGYIFTSYWMHWVKQRPGQGLEWIGEITPSDNYTSYNQKFKGKATLTVDKSSSTAYMQLSSLTSEDSAVYYCTRGHGNYVSFDYWGQGTTLTVSS
VL: DIQMTQITSSLSASLGDRVTITCRASQDISNYLNWYQQKPDGTVKLLIYYTSRLHSGVPSRFSGSGSGTDYSLTISNLEQEDIATYFCQQGYTLPPYTFGGGTKLEIK
notes: also called murine antibody 23-12
B3: no binding (tested: 1 µg/ml) [1].

B4: h4-3-1 (antibody, human IgG1, kappa, V domains shown)
VH: EVQLVQSGPEVKKPGASVKVSCKASGFTFTDYVIGWVRQAPGQGLEWIGEIYLGSGTIYYTEKFKGRVTMTADTSTSTAYMELSSLRSEDTAVYYCARGSIFPFDYWGQGTLVTVSS
VL: DIQLTQSPSSLSASVGDRVTITCSASSSVSYMYWYQQKPGKAPKLLIYDTSTLASGVPSRFSGSGSGTDFTLTISSLQPEDFATYYCQQWSSYPYTFGQGTKLEIKR
notes: also called CDR grafted antibody 4-3
In the case of B4, the EC50 [2] is reported as 0.0461 nM, the binding result [3] is reported as “no binding (tested: up to 3 µg/ml)” and the Kd [4] is reported as 0.304 nM. It also gave an EC50 [5] of 0.0469 nM, a Kd [6] of 0.545 nM and a koff [6] of 0.000146 s⁻¹. For the same binder, the kon [6] was 267000 M⁻¹ s⁻¹.

B5: m3-11 (antibody, mouse IgG1, V domains shown)
VH: QVQLQQPGAELVKPGSSVKLSCKASGYTFTSYWMYWVKQRPGQGLEWIGEINPSNGRTNYNEKFKSKATLTVDKSSSTAYMQFSSLTSEDSAVYYCTREGHNYDGSLGAMDHWGQGTSVTVSS
VL: DVVVTQTPLSLPVSFGDQVSISCRSSQSLTNSYGNTFLSWYLHKPGQSPQLLLYGISNRFSGVPDRFSGSGSGTDFTLKINTIKPEDLGMYYCFQSTHQPYTFGGGTKLEIK
notes: also called murine antibody 3-11
B5: no binding (tested: 1 µg/ml) [1].

B6: PC (antibody, V domains shown)
VH: QVQLQQSGSELKKPGASVKVSCKASGYTFTNYGMNWVKQAPGQGLKWMGWINTYTGEPTYTDDFKGRFAFSLDTSVSTAYLQISSLKADDTAVYFCARGGFGSSYWYFDVWGQGSLVTVSS
VL: DIQLTQSPSSLSASVGDRVSITCKASQDVSIAVAWYQQKPGKAPKLLIYSASYRYTGVPDRFSGSGSGTDFTLTISSLQPEDFAVYYCQQHYITPLTFGAGTKVEIK
notes: not the human IgG1 Sacituzumab m5; also called Positive Control (PC); Sacituzumab, a version having murine IgG constant region; not shown: murine IgG heavy-chain constant region and murine light-chain constant region of this version
B6: no binding (tested: 1 µg/ml (paragraph 111 prints '1 g/ml')) [7].

B7: m17-1 (antibody, mouse IgG1, V domains shown)
VH: EVKLVESGGVLVKPGGSLKLSCAASGFTFSDSAMSWVRQTPEKRLEWVASISRGDDTYYPDSVKGRITISRDFARNILYLQMTSLRSEDTAMYYCTRDRFGFAYWGQGTLVTVSA
VL: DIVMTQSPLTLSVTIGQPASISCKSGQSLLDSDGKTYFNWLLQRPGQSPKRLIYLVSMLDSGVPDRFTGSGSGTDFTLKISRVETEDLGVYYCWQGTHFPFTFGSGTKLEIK
notes: also called murine antibody 17-1
B7: binds [8].

From patent publication US20240092930A1 (MABWELL SHANGHAI BIOSCIENCE, published 2024)
